# According to the supplement of paper PMC10065799, “High-throughput profiling of sequence recognition by tyrosine kinases and SH2 domains using bacterial peptide display” (eLife, 2023):
# What was measured:
# EPHB2 = EPHB2 (UniProt P29323); assay: phosphorylation enrichment, bacterial display (enrichment ratio); higher = better substrate or ligand; peptides without Tyr show the background
# FGFR1 = FGFR1 (UniProt P11362); assay: as above
# FGFR3 = FGFR3 (UniProt P22607); assay: as above
# AncSZ = assay: as above
# Hck = Hck (UniProt P08631); assay: as above
# EPHB1 = EPHB1 (UniProt P54762); assay: as above
# Jak2 = Jak2 (UniProt O60674); assay: as above
# Fer (mouse) = assay: as above
# MERTK = MERTK (UniProt Q12866); assay: as above
# c-Src = assay: as above
# Fes = Fes (UniProt P07332); assay: as above
# Fyn = Fyn (UniProt P06241); assay: as above
# c-Abl (mouse) = assay: as above
# SHP2-C SH2 = assay: SH2 binding enrichment of the phosphorylated peptide, bacterial display (enrichment ratio); higher = better substrate or ligand; peptides without Tyr show the background
# Grb2 SH2 = Grb2 SH2 (UniProt P62993); assay: as above
# c-Src SH2 = assay: as above
# 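Wherever SH2 binding enrichment of the phosphorylated peptide, bacterial display is given: peptide library displayed on the E. coli surface as eCPX fusions, selected cells deep-sequenced, score is each peptide's frequency after selection divided by its frequency in the input.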
# 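Wherever phosphorylation enrichment, bacterial display is given: 11-residue human phosphosite peptides and single-mutation variants displayed on the E. coli surface, counted by deep sequencing, each peptide's frequency after selection divided by its frequency in the unselected input library; frequency after pTyr selection over input frequency; kinase dosed for 20-30% of maximal phosphorylation in three min.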
# Hck, sequence (P08631 whole entry, looked up): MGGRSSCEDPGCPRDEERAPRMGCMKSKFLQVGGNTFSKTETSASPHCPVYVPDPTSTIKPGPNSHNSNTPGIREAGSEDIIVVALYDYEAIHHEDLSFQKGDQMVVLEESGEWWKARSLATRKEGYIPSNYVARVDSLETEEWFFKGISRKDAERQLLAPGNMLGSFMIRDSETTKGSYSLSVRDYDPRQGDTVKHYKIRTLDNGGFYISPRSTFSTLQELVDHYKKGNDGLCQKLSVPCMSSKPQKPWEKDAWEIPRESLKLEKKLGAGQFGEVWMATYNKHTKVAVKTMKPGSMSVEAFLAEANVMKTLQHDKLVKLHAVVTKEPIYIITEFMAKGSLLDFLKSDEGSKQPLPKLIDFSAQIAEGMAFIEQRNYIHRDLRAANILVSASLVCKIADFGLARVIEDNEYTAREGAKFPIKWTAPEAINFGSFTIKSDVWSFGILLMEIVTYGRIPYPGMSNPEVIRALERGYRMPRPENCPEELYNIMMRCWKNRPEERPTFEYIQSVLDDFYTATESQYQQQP
# Grb2 SH2, sequence (P62993 whole entry, looked up): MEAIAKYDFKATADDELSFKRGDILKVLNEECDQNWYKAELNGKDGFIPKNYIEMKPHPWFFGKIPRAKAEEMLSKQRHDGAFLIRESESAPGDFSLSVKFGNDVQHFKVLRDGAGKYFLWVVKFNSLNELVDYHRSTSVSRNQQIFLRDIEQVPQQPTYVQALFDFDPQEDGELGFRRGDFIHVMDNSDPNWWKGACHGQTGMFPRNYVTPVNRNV
# MERTK, sequence (Q12866 whole entry, looked up): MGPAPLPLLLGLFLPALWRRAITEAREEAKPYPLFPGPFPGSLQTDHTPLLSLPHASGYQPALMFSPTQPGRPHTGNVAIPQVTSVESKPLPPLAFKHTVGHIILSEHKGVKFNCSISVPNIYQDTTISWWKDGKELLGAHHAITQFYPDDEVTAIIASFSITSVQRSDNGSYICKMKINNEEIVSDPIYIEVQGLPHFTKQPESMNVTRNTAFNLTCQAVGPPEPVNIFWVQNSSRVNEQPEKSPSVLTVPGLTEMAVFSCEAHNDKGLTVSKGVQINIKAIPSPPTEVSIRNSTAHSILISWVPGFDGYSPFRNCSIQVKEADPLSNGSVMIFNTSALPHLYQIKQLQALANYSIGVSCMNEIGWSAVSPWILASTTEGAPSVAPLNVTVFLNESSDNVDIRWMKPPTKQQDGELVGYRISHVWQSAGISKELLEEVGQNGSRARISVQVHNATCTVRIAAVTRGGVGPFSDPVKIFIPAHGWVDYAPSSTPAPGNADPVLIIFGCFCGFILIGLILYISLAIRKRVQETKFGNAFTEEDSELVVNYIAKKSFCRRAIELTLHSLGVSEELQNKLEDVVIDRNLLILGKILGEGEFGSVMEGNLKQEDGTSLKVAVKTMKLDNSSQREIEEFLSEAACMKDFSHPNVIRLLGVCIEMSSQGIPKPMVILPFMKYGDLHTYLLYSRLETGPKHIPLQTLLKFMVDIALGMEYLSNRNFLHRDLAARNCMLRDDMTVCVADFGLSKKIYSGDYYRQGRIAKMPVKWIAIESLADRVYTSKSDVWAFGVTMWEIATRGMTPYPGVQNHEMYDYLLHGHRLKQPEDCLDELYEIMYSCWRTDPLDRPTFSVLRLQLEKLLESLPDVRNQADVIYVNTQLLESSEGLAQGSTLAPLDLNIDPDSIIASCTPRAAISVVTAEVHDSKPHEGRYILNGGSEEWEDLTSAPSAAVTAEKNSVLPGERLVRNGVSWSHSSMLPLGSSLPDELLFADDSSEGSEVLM
# Fyn, sequence (P06241 whole entry, looked up): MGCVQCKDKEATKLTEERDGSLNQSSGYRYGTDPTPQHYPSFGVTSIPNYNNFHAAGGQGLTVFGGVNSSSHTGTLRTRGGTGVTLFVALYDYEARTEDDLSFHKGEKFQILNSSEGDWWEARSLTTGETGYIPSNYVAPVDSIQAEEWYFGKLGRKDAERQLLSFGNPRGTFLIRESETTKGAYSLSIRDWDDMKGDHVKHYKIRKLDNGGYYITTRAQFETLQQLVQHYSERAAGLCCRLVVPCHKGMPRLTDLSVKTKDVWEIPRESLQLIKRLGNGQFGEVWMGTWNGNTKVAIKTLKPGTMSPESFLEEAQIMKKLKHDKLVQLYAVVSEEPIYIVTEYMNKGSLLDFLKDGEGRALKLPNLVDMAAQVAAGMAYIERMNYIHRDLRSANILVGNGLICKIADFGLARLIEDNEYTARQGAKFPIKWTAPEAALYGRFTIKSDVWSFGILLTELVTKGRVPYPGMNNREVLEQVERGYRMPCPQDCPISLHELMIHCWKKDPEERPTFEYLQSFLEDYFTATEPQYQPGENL
# FGFR3, sequence (P22607 whole entry, looked up): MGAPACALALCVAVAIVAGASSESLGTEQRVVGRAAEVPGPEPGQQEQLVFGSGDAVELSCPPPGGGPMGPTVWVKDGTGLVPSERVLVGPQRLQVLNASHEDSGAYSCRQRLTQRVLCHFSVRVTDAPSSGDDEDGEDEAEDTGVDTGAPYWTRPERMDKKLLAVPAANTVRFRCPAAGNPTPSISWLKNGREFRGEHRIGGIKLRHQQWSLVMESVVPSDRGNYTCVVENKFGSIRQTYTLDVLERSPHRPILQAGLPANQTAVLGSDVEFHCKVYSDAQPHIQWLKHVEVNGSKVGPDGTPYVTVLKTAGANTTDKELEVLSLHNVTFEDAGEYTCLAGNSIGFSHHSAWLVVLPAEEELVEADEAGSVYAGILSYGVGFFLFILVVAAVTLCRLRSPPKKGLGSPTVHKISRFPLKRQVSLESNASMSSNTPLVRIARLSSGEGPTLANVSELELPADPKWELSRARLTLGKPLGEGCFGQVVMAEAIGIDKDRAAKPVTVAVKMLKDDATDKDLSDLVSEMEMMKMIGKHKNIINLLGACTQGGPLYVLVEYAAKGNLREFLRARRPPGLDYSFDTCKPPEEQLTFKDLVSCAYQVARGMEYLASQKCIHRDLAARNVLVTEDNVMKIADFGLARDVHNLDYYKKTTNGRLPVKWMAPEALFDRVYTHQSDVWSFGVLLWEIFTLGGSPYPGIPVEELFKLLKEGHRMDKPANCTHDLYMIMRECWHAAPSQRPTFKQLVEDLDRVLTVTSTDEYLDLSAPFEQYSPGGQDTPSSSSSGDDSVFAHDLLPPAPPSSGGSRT
# Fes, sequence (P07332 whole entry, looked up): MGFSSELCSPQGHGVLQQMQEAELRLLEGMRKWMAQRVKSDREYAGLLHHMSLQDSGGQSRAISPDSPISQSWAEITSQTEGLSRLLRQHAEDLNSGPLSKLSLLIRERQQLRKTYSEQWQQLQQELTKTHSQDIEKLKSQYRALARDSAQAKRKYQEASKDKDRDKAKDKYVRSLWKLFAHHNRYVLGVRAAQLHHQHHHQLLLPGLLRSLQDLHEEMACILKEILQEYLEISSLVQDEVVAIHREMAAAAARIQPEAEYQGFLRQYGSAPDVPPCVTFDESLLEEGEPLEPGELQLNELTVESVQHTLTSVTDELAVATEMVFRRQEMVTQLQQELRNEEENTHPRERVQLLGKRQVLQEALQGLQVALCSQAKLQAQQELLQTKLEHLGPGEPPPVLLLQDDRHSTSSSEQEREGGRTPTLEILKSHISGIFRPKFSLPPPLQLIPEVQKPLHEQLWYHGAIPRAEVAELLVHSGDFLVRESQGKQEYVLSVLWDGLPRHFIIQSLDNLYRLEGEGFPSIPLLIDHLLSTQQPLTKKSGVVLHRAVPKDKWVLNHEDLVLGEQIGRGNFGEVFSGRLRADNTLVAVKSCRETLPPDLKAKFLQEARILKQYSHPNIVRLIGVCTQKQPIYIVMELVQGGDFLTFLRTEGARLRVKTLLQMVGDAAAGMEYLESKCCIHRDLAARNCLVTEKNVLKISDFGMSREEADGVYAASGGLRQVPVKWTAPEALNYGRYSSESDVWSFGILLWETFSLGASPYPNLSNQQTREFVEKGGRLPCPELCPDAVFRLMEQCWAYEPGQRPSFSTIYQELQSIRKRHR
# FGFR1, sequence (P11362 whole entry, looked up): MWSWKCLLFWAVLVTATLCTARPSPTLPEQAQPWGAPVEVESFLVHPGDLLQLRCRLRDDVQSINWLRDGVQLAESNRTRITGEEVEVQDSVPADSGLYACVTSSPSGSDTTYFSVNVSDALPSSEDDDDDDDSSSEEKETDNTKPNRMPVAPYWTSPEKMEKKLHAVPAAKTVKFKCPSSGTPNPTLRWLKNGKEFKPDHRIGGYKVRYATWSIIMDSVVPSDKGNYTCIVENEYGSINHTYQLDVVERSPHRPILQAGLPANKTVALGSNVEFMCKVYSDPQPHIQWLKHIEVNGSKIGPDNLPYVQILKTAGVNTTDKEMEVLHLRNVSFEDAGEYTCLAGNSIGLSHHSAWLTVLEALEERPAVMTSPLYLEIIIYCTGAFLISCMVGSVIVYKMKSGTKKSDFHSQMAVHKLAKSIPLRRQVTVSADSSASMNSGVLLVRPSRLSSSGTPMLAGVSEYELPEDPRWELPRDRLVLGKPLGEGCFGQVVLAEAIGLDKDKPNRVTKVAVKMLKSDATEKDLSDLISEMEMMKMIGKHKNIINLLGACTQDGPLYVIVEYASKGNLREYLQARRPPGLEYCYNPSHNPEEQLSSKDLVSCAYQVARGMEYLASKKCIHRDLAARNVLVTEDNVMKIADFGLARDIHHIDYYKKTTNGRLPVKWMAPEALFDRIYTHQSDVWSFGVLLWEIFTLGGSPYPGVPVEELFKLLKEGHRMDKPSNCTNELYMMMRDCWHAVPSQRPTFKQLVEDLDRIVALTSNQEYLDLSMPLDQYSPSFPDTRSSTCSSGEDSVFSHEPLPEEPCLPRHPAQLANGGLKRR
Sequence,phosphorylation enrichment (EPHB2),phosphorylation enrichment (FGFR1),phosphorylation enrichment (FGFR3),phosphorylation enrichment (AncSZ),phosphorylation enrichment (Hck),phosphorylation enrichment (EPHB1),phosphorylation enrichment (Jak2),phosphorylation enrichment (Fer (mouse)),phosphorylation enrichment (MERTK),phosphorylation enrichment (c-Src),phosphorylation enrichment (Fes),phosphorylation enrichment (Fyn),phosphorylation enrichment (c-Abl (mouse)),SH2 binding enrichment (SHP2-C SH2),SH2 binding enrichment (Grb2 SH2),SH2 binding enrichment (c-Src SH2)
DKWFLYKMRDI [CPS1_Y879],0.57,0.466,0.77,1.14,0.469,0.671,1.32,0.505,0.311,0.403,1.36,0.444,0.963,0.661,0.838,0.373
DLAGRYFALRS [CKB_Y173_K177R_YF],0.371,0.447,0.394,0.587,0.4,0.419,0.761,0.36,0.476,0.347,0.579,0.38,0.554,0.628,0.905,0.738
DLREKYMDCGG [HAP1_Y440],0.625,0.507,0.726,0.919,0.55,0.716,0.913,0.586,0.442,0.389,1.1,0.499,0.738,0.596,0.938,0.668
DLWEKYMDCGG [HAP1_Y440_R437W],0.775,0.6,0.854,1.44,0.596,0.976,1.12,0.578,0.458,0.436,1.42,0.509,0.738,0.617,0.768,0.55
DMGAQYAAASP [ARID1B_Y483],0.552,0.48,0.584,0.647,0.462,0.486,0.653,0.652,0.434,0.504,0.71,0.411,0.652,0.647,0.67,0.63
DNEAIYDICRR [TUBA4A_Y210],4.97,0.671,0.843,2.79,7.21,4.07,1.03,10.7,5.98,5.7,1.45,8.6,16.1,0.546,0.613,0.516
DNQYAYLKAII [HNF4A_Y288_E285Q],0.549,2.72,1.91,1.19,1.4,0.562,1.11,0.64,1.58,0.551,1.09,0.456,3.75,0.826,0.769,0.531
DPADRYLTEQC [CDKL5_Y286],0.558,0.458,0.731,0.986,0.506,0.485,0.947,0.53,0.446,0.523,1.12,0.478,0.713,0.747,0.918,0.507
DPHECYAEVFD [ALB_Y394_K396E],0.807,1.2,1.25,1.32,0.944,0.871,1.01,0.617,0.626,0.775,1.55,0.753,0.817,0.954,1.1,1.23
DPMNTYARPAE [SGMS2_Y24_T21M],0.476,0.475,0.542,0.878,0.576,0.381,0.771,0.504,0.46,0.538,0.883,0.434,0.792,0.605,0.732,1.73
DRKRQCELLKL [KIF4B_Y684_Y684C],0.404,0.502,0.689,0.646,0.428,0.401,0.791,0.432,0.356,0.493,0.839,0.355,0.679,1.19,1.03,0.886
DRLASYSDKVR [KRT10_Y160_L161S],0.365,0.454,0.419,0.578,0.387,0.366,0.503,0.322,0.43,0.445,0.553,0.41,0.42,0.667,1.04,0.521
DRLAVYIDRVP [LMNA_Y45_R50P],0.719,0.451,0.731,1.09,0.468,0.682,0.911,0.437,0.331,0.329,1.09,0.429,0.654,0.912,0.756,0.471
DRTVNYVLKCR [PLEKHG4_Y1068],0.67,0.517,0.778,1.15,0.688,0.668,0.898,0.566,0.357,0.43,1.17,0.515,0.764,0.61,0.728,0.83
DRVALYIAREG [AACS_Y117],0.534,0.519,0.717,0.957,0.569,0.671,1.02,0.484,0.395,0.432,1.14,0.468,0.731,0.928,0.896,0.487
DRVALYVAREG [AACS_Y117_I118V],0.763,0.503,0.705,0.8,0.68,0.621,0.823,0.498,0.291,0.367,1.01,0.467,0.589,0.644,0.825,0.425
DSIRDYEDGME [CLNS1A_Y214],0.784,0.628,0.729,1.29,0.612,0.749,1.66,0.49,0.599,0.521,1.26,0.647,0.844,0.859,0.851,0.579

Sequence,phosphorylation enrichment (EPHB2),phosphorylation enrichment (FGFR1),phosphorylation enrichment (FGFR3),phosphorylation enrichment (AncSZ),phosphorylation enrichment (Hck),phosphorylation enrichment (EPHB1),phosphorylation enrichment (Jak2),phosphorylation enrichment (Fer (mouse)),phosphorylation enrichment (MERTK),phosphorylation enrichment (c-Src),phosphorylation enrichment (Fes),phosphorylation enrichment (Fyn),phosphorylation enrichment (c-Abl (mouse)),SH2 binding enrichment (SHP2-C SH2),SH2 binding enrichment (Grb2 SH2),SH2 binding enrichment (c-Src SH2)
DSYSSYCNAVA [SLC20A2_Y436],0.995,0.904,0.664,1.44,0.788,0.729,0.859,0.687,0.788,0.84,1.23,0.819,0.771,0.688,0.796,1.1
DVELLYPLKEK [EPHX1_Y283_V285L],0.438,0.452,0.751,1.08,0.495,0.395,0.866,0.422,0.426,0.439,1,0.484,0.695,0.787,0.893,0.448
DVYVSYDCGKS [SORL1_Y139_Y141C],1.93,1.79,1.81,1.6,3.12,1.47,0.895,0.985,1.04,3.94,1.1,6.11,0.862,0.791,0.82,0.476
DYCDLYGGEKF [PTPN11_Y66_Y63C],2.14,3.45,2.56,1.72,2.31,2.93,0.914,0.967,0.477,2.39,1.05,1.39,0.747,0.525,0.839,0.724
DYYDLYGGQKF [PTPN11_Y66_E69Q],8.29,15.9,13.5,2.69,8.28,8.34,5.14,2.32,5.66,6.47,1.02,7.93,0.814,0.865,0.86,0.666
EAEALYQTTFQ [KRT73_Y325_K328T],1.53,0.644,0.972,1.98,4.59,1.27,1.13,11.9,4.9,4.32,1.27,3.38,2.1,0.739,0.804,0.483
EALDFYGEVRT [PTEN_Y155],0.65,0.501,0.872,1.23,0.918,0.829,1.51,0.707,0.37,1.01,1.39,1,0.825,0.643,0.635,0.458
EAMSDYKKQLR [SPATA18_Y229],0.413,0.378,0.605,0.594,0.383,0.418,0.563,0.405,0.393,0.452,0.651,0.316,0.442,1.05,0.852,0.438
EARRVYGDIIH [ALDH5A1_Y175],0.378,0.426,0.447,0.608,0.42,0.41,0.517,0.477,0.408,0.499,0.707,0.514,0.596,0.561,0.977,0.445
EEEFFYEKAIL [BCCIP_Y257],0.648,0.671,0.895,1.93,0.811,0.622,1.34,5.34,0.847,0.89,1.55,0.633,1.1,0.685,0.981,0.655
EEQKKNYNAMK [SCN5A_Y1494_Y1494N],0.364,0.433,0.399,0.572,0.351,0.389,0.55,0.336,0.395,0.415,0.663,0.291,0.497,0.595,0.815,0.443
EEQKKYSNAMK [SCN5A_Y1494_Y1495S],0.539,0.456,0.529,0.611,0.37,0.429,0.56,0.353,0.327,0.404,0.723,0.377,0.772,0.617,0.82,0.497
EESSHCSTEKE [ADAR_Y587_Y587C],0.683,0.593,0.663,1.06,0.598,0.631,0.8,0.424,0.502,0.5,1.01,0.598,0.559,0.668,0.81,0.562
EEVGIYRVSGV [BCR_Y1089],0.434,0.457,0.647,1.04,3.09,0.488,0.794,0.504,0.575,4.45,0.919,4.31,14.1,0.521,0.732,0.491
EFGRRYGFSRQ [CCDC93_Y209_YF],0.416,0.43,0.432,0.621,0.422,0.427,0.607,0.338,0.499,0.492,0.634,0.449,1.42,0.508,0.686,0.546
EGQKIYIDDNS [PIP4K2A_Y246_N251S],0.549,0.446,0.645,0.862,0.465,0.499,0.886,0.459,0.461,0.526,1.09,0.53,0.689,0.656,0.661,0.538
